Source: patent US9598479B2, “Nanoparticle-peptide compositions” (Midatech Ltd., priority 2011, dated 2017)
Numbered stars: 1 amine (or outer) side, 2 acyl side, 3 side chain; on linkers, the order of the positions; unused ones are H or OH. Square brackets hold non-standard residues; d marks the D form. Ends that are not written are not given here. Cysteamide = C(CS[*:3])N[*:1]; Mpa = O=C(O)CCS

Assays:
[1] = Aggregation and solubilisation of nanoparticle preparations; assay type: physicochemical; conditions: for solubility of aggregates in alkali: 300 mM NaOH; for aggregation of NP after repeat production: 75% methanol in the synthesis stage; for aggregation of NP after production: first production (95% methanol); for solubility of aggregates: water, 10% acetic acid, PBS, DMSO or DMF
Description: The following method was used; 1.5 μmole peptide was dissolved in 2 ml methanol, followed by the addition of 30 μmole GlcC2 in 200 μl methanol, and 116 μl of aqueous gold chloride containing 10 μmole Au. The sample was vortexed for 30 sec, shaken for approximately 5 min and then under rapid vortexing for a total of 30 sec 200 μl of 1M NaBH4 was added, tubes were sealed and then gently shaken for 1.5 h.
Samples were bench spun the supernatant removed and the dark pellet dissolved in 2 ml water, and then transferred to a 10 kDa vivaspin for a total of 4 times 2 ml water washes each of 8 min at 5 Krpm.
Nanoparticles (NPs) were removed from the vivaspins and made up to 500 μl with water, they were then subjected to 15 Krpm bench spin to remove any large aggregates.
NP's 2-5 were produced by a variation using 75% methanol not 95% in the synthesis stage.

[2] = system: LK^b cells; assay: Flow cytometry measure of […] presentation (25.D1.16 antibody); assay type: cell-based, mouse; conditions: for processing and presentation of SIINFEKL from GNP, flow cytometric method: LKb cells pulsed 2 h with GNP equivalent to 1, 0.1 or 0.01 ug/mL peptide, FIG. 1A-D
Description: (§1) Next, GNPs were pulsed to the equivalent of 1 ug/mL peptide (Green), 0.1 ug/mL (Blue), or 0.01 ug/mL (Red). After two hours, cells were washed, and subjected to (A-D) flow cytometric labelling with 25.D1.16 (Angel) antibody, or (E) combined with B3Z CTL for overnight co-culture. The next day, cells were lysed and Beta-galactosidase activity was measured.
In order to analyze epitope linkage to nanoparticles, we first optimized a readout assay for the presentation of the epitope released from the nanoparticle. For this purpose, […] (SEQ ID NO: 2) presentation in LK^b cells was evaluated. As mentioned earlier, more than one reagent exists. Of the two methods tested, one is flow cytometry-based, while the other is cell-based. The flow cytometry-based method begins with pulsing LK^b cells with differing amounts of […] (SEQ ID NO: 2) peptide. After allowing enough time for peptide binding to surface K^b molecules, cells were washed and incubated with the 25.D1.16 antibody which is specific to the […]:K^b (SEQ ID NO: 2) complex. Next, the cells were secondarily labelled and subjected to flow cytometry analysis using unpulsed cells as the background reading.
LK^b cells were treated with varying amounts of […] (SEQ ID NO: 2) peptides. […] Cells were then washed two times in PBS and incubated for 30 min on ice with FITC-labeled goat anti-mouse IgG secondary antibody (Caltag Laboratories, Burlingham, Calif.). Finally, cells were washed two times with PBS and resuspended in PBS+0.1% BSA for flow cytometry on a Guava EasyCyte Plus Flow Cytometer (Millipore, Billerica, Mass.) and analyzed using the accompanying software.
(§2) To assay […] (SEQ ID NO: 2) presentation using a flow cytometric or cell-based method, we pulsed LK^b cells in a 15 mL conical at 37° C. for 2 hrs. Following this incubation, cells were washed once with PBS and then subjected to detection using flow cytometry or added to B3Z cells at an effector to target ratio of 1:1.
(§3) […] (SEQ ID NO: 2), an epitope derived from ovalbumin that is presented in the context of the murine MHCI molecule H-2 Kb, was measured using two methods. One method utilized a TCR-like antibody termed 25.D1.16, also referred to as “Angel”, that recognize […] (SEQ ID NO: 2)/MHCI complex. In addition, we assessed presentation using the B3Z, […] (SEQ ID NO: 2) peptide specific CTL hybridoma, which expresses β-galactosidase under the NFAT (CTL signaling molecule) promoter, which upon activation express beta-gal measured by a light emitting substrate.

[3] = system: B3Z (OVA peptide specific T cell line); assay: B3Z T cell activation (β-galactosidase) measure of antigen presentation; assay type: cell-based, mouse; conditions: for processing and presentation of SIINFEKL from GNP, CTL-based method: LKb cells pulsed 2 h with GNP equivalent to 1, 0.1 or 0.01 ug/mL peptide, overnight co-culture with B3Z, FIG. 1E
Description: as §1
Another form of epitope-specific antigen presentation is the measurement of T cell activation by the MHCI peptide complex. Here, we used B3Z (OVA peptide specific T cell line), which recognizes […] (SEQ ID NO: 2) the context of K^b. As a convenient measure, this T cell line contains β-galactosidase cloned with the NFAT promoter. Upon peptide recognition and T cell activation, β-galactosidase is expressed and conversion of a detectible substrate serves as an excellent measure of antigen presentation to T cells.
To evaluate this method, we performed a similar experiment as above. LK^b cells were pulsed with […] (SEQ ID NO: 2) peptide, washed, and then co-incubated with B3Z T cell line overnight. The next day, cells were lysed and β-galactosidase was measured using a luminescent substrate. As expected, the resolution of this method was similar to the previous method with the limit of detection at approximately 5 ng/mL.
The […]:Kb-specific T hybridoma (B3Z) (SEQ ID NO: 2) expresses (β-galactosidase upon recognition of peptide-MHC class I complexes and has been described previously (3, 6). T cell hybridomas were maintained in complete RPMI plus 10% FCS and 0.05 mM 2-ME. Activation was measured using the luminescent substrate Galactolight Plus (Applied Biosystems, Foster City, Calif.) according to the manufacturer's instructions. Light intensity was measured using a TopCount NXT plate reader (Perkin Elmer, Waltham, Mass.).
as §2, §3

Row | Substance | solubility of aggregates in alkali [1] | aggregation of NP after repeat production [1] | aggregation of NP after production [1] | solubility of aggregates [1] | processing and presentation of SIINFEKL from GNP, flow cytometric method [2] | processing and presentation of SIINFEKL from GNP, CTL-based method [3] | further results
1 | NP 3: gold nanoparticle with GlcC2 ligands and peptide ligand 3, FLSIINFEKL-N—(CH2)2-SH (FLSIINFEKL-Cysteamide; also: on gold nanoparticle with GlcC2 ligands) | total NP solubilisation | formed aggregates | large near complete aggregation | not soluble | – | – | –
2 | NP2: gold nanoparticle with GlcC2 ligands and peptide ligand 2, SIINFEKL-N—(CH2)2-SH | – | ‘normal’ NP | – | – | – | – | –
3 | SIINFEKL (listed as Gallus gallus) [reference compound] | – | – | – | – | – | – | lowest pulse concentration at which surface SIINFEKL:K^b complexes were detected ([2]; LK^b cells pulsed with free SIINFEKL peptide, unpulsed cells as background): 5 ng/mL; limit of detection ([3]; LK^b cells pulsed with free SIINFEKL peptide, co-incubated with B3Z overnight, luminescent substrate): approximately 5 ng/mL
4 | NP 4: gold nanoparticle with GlcC2 ligands and peptide ligand 4, FLAAYSIINFEKL-N—(CH2)2-SH (FLAAYSIINFEKL-Cysteamide; also: on gold nanoparticle with GlcC2 ligands) | total NP solubilisation | formed aggregates | large near complete aggregation | not soluble | – | – | –
5 | GNP 8: gold nanoparticle with GlcC2 ligands and peptide ligand 8, HS(CH2)2-CONH-FLAAYSIINFEKL ([Mpa]FLAAYSIINFEKL; numbers in words are those of the source; also: on gold nanoparticle with GlcC2 ligands) | – | – | – | – | good processing and presentation | good processing and presentation | presentation from preparations lacking free peptide, flow cytometry ([2]; Sephadex G-50 purified new GNP vs old GNP, FIGS. 3C-E): work just as well as those containing peptide; presentation from preparations lacking free peptide, B3Z assay ([3]; Sephadex G-50 purified new GNP vs old GNP, overnight incubation, FIG. 3F): confirmed
6 | GNP 12: gold nanoparticle with GlcC2 ligands and peptide ligand 12, HS—(CH2)10-(CH2OCH2)7-CONH-FLAAYSIINFEKL ({HS‑(CH2)10‑(CH2OCH2)7‑CO}-FLAAYSIINFEKL; also: on gold nanoparticle with GlcC2 ligands) | – | – | – | – | good processing and presentation | good processing and presentation | –
